From article PMC11362306

Molecular target: BLIP2 with azF at residue 41 (BLIP2^41azF)
Assay: CNT-FET conductance (I-V); BLIP2 azF variant photochemically attached to p-type SWCNTs of a CNT-FET; BL (or BSA) added in DPBS, to 1.4 μM or stepwise; I-V curves, room temperature; also with 0.5% (w/v) BSA for TEM-1 on BLIP2^213azF

In the case of “TEM-1 β-lactamase (from UniProt P62593 24-286) (enzyme)”, the conductance increase, fold lower than on BLIP2^213azF devices was 4 fold.
